In the supplement of paper PMC10598134:
± gives the standard deviation.

Experiment: collision cross section of modified peptide (TIMS, N2, iRT-aligned); higher = larger / more extended gas-phase ion
Experimental: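 1/K0 was aligned run-wise to spiked iRT peptides and converted to CCS in N2 (Mason-Schamp). Values are the mean of 1-3 technical replicates for the most abundant feature at each charge state.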

[1] = charge state: 2, modification: Crotonyl
[2] = charge state: 2, modification: Methyl (K)
[3] = charge state: 3, modification: Methyl (K)
[4] = charge state: 2, modification: Citrullination (R)
[5] = charge state: 3, modification: Citrullination (R)
[6] = charge state: 2, modification: Butyryl
[7] = charge state: 2, modification: Malonyl
[8] = charge state: 3, modification: Malonyl
[9] = charge state: 2, modification: Succinyl
[10] = charge state: 2, modification: Glutarylation
[11] = charge state: 3, modification: Glutarylation
[12] = charge state: 2, modification: Formyl
[13] = charge state: 2, modification: Biotin
[14] = charge state: 3, modification: Biotin
[15] = charge state: 2, modification: Nitro (Y)
[16] = charge state: 2, modification: Acetyl (K)
[17] = charge state: 2, modification: hydroxyisobutyryl
[18] = charge state: 2, modification: Trimethyl (K)
[19] = charge state: 3, modification: Trimethyl (K)
[20] = charge state: 2, modification: GlyGly (K)
[21] = charge state: 3, modification: GlyGly (K)
[22] = charge state: 2, modification: HexNAc (ST)
[23] = charge state: 3, modification: Methyl (R)
[24] = charge state: 2, modification: Dimethyl (K)
[25] = charge state: 3, modification: Dimethyl (K)
[26] = charge state: 3, modification: Crotonyl
[27] = charge state: 3, modification: Acetyl (K)

**Q.** With “SDSGKPYYYNSQTK [_SDSGK(Crotonyl)PYYYNSQTK_]” as the sequence, how does the collision cross section [1] read?
**A.** 425.72 ± 0.29 Å²

**Q.** With “SLFFGGKGAPLQR [_SLFFGGK(Methyl (K))GAPLQR_]” as the sequence, how does the collision cross section [2] read?
**A.** 405.87 ± 0.92 Å²

**Q.** And the collision cross section [3]?
**A.** 448.66 ± 4 Å²

**Q.** Which collision cross section (charge state: 3, modification: HexNAc (ST)) does the source give for “SLYASSPGGVYATR [_S(HexNAc (ST))LYASSPGGVYATR_]” here?
**A.** 478.28 ± 0.91 Å²

**Q.** For “RLPNVHGR [_R(Citrullination (R))LPNVHGR_]”, which collision cross section [4] is on record?
**A.** 340.93 ± 1.6 Å²

**Q.** And the collision cross section [5]?
**A.** 417.11 ± 3.5 Å²

**Q.** What does the source list for KYEEIDNAPEER [_K(Butyryl)YEEIDNAPEER_]?
**A.** collision cross section [6]: 413.71 ± 1.1 Å²; collision cross section (charge state: 3, modification: Butyryl): 492.73 ± 3.5 Å²

**Q.** With “VDVEVPDVSLEGPEGKLK [_VDVEVPDVSLEGPEGK(Malonyl)LK_]” as the sequence, how does the collision cross section [7] read?
**A.** 466.73 ± 0.63 Å²

**Q.** What about the collision cross section [8] of the same sequence?
**A.** 496.84 Å²

**Q.** With “SGKFTQQDIDEAK [_SGK(Butyryl)FTQQDIDEAK_]” as the sequence, how does the collision cross section [6] read?
**A.** 419.52 ± 1.7 Å²

**Q.** With “ISSNFSSIIAEKLR [_ISSNFSSIIAEK(Crotonyl)LR_]” as the sequence, how does the collision cross section [1] read?
**A.** 435.72 Å²

**Q.** What does the source list for “TQAYQDQKPGTSGLR [_TQAYQDQK(Succinyl)PGTSGLR_]”?
**A.** collision cross section [9]: 434.09 ± 1.1 Å²; collision cross section (charge state: 3, modification: Succinyl): 483.43 ± 3.9 Å²

**Q.** For “DLGKFQVATDALK [_DLGK(Malonyl)FQVATDALK_]”, which collision cross section [7] is on record?
**A.** 406.38 ± 0.61 Å²

**Q.** For “SPSDSGYSYETIGKTTK [_SPSDSGYSYETIGK(Gluratylation)TTK_]”, which collision cross section [10] is on record?
**A.** 456.74 ± 1.5 Å²

**Q.** And the collision cross section [11]?
**A.** 531.96 ± 0.12 Å²

**Q.** For “AGPNASIISLKSDK [_AGPNASIISLK(Formyl)SDK_]”, which collision cross section [12] is on record?
**A.** 404.66 ± 0.43 Å²

**Q.** Which collision cross section (charge state: 2, modification: Phospho (Y)) does the source give for “LNAIYQNNLTK [_LNAIY(Phospho (Y))QNNLTK_]” here?
**A.** 390.25 ± 0.67 Å²

**Q.** For “DYSSGFGGKYGVQADR [_DYSSGFGGK(Biotin)YGVQADR_]”, which collision cross section [13] is on record?
**A.** 450.72 ± 0.16 Å²

**Q.** And the collision cross section [14]?
**A.** 509.9 ± 0.34 Å²

**Q.** With “LLALSGPGGGRGR [_LLALSGPGGGR(Citrullination (R))GR_]” as the sequence, how does the collision cross section [4] read?
**A.** 366.92 ± 1 Å²

**Q.** And the collision cross section [5]?
**A.** 440.81 ± 17 Å²

**Q.** For GSELQNYFTK [_GSELQNY(Nitro (Y))FTK_], which collision cross section [15] is on record?
**A.** 363.07 ± 0.55 Å²

**Q.** Which collision cross section [16] does the source give for “SKLLFSNTAAQK [_SK(Acetyl (K))LLFSNTAAQK_]” here?
**A.** 396.66 ± 1.3 Å²

**Q.** Which collision cross section [6] does the source give for ITGKNQVTATK [_ITGK(Butyryl)NQVTATK_] here?
**A.** 370.52 ± 0.71 Å²

**Q.** With “DKALPLEAEVAPVK [_DK(Gluratylation)ALPLEAEVAPVK_]” as the sequence, how does the collision cross section [10] read?
**A.** 424.54 ± 0.97 Å²

**Q.** For “ILDLKTGTVK [_ILDLK(hydroxyisobutyryl)TGTVK_]”, which collision cross section [17] is on record?
**A.** 366.99 ± 1.3 Å²

**Q.** Which results are given for LGNDFHTNKR [_LGNDFHTNK(Methyl (K))R_]?
**A.** collision cross section [2]: 368.02 ± 0.46 Å²; collision cross section [3]: 430.67 ± 6.2 Å²

**Q.** With SKHLQEQLNELK [_SK(Malonyl)HLQEQLNELK_] as the sequence, how does the collision cross section [7] read?
**A.** 415.64 Å²

**Q.** And the collision cross section [8]?
**A.** 480.76 ± 0.91 Å²

**Q.** Which collision cross section [15] does the source give for “LGDVYVNDAFGTAHR [_LGDVY(Nitro (Y))VNDAFGTAHR_]” here?
**A.** 443.1 ± 0.55 Å²

**Q.** What about the collision cross section (charge state: 3, modification: Nitro (Y)) of the same sequence?
**A.** 500.36 ± 1.2 Å²

**Q.** Which results are given for “KYEEIDNAPEER [_K(Trimethyl (K))YEEIDNAPEER_]”?
**A.** collision cross section [18]: 405.59 ± 0.61 Å²; collision cross section [19]: 490.14 ± 2.4 Å²

**Q.** What does the source list for “SLEEEGAAHSGKR [_SLEEEGAAHSGK(GlyGly (K))R_]”?
**A.** collision cross section [20]: 418.89 ± 1.9 Å²; collision cross section [21]: 473.02 ± 0.33 Å²

**Q.** Which collision cross section [22] does the source give for “DSLGVSFPEELACK [_DSLGVS(HexNAc (ST))FPEELACK_]” here?
**A.** 437.05 Å²

**Q.** Which collision cross section (charge state: 2, modification: Propionyl) does the source give for “INNFSADIKDSK [_INNFSADIK(Propionyl)DSK_]” here?
**A.** 401.7 ± 0.42 Å²

**Q.** Which collision cross section [9] does the source give for “SDSGKPYYYNSQTK [_SDSGK(Succinyl)PYYYNSQTK_]” here?
**A.** 423.37 ± 1.1 Å²

**Q.** For “LLEEEDSKLK [_LLEEEDSK(hydroxyisobutyryl)LK_]”, which collision cross section [17] is on record?
**A.** 385.85 ± 5.2 Å²

**Q.** Which collision cross section [23] does the source give for “GGGYGGDRGGYGGDR [_GGGYGGDR(Methyl (R))GGYGGDR_]” here?
**A.** 455.76 ± 1.3 Å²

**Q.** For “ISSNFSSIIAEKLR [_ISSNFSSIIAEK(Dimethyl (K))LR_]”, which collision cross section [24] is on record?
**A.** 442.58 ± 1.2 Å²

**Q.** What about the collision cross section [25] of the same sequence?
**A.** 495.15 ± 0.74 Å²

**Q.** Which results are given for GLATFPSRGAK [_GLATFPSR(Methyl (R))GAK_]?
**A.** collision cross section (charge state: 2, modification: Methyl (R)): 371.86 ± 0.78 Å²; collision cross section [23]: 447 ± 3.2 Å²

**Q.** For LDHLAEKFR [_LDHLAEK(Crotonyl)FR_], which collision cross section [1] is on record?
**A.** 378.01 ± 0.89 Å²

**Q.** What about the collision cross section [26] of the same sequence?
**A.** 440.09 ± 1.3 Å²

**Q.** For “ETTPSSLAVTQTMATK [_ETTPSSLAVTQT(HexNAc (ST))MATK_]”, which collision cross section [22] is on record?
**A.** 451.07 Å²

**Q.** Which results are given for “TQAYQDQKPGTSGLR [_TQAYQDQK(GlyGly (K))PGTSGLR_]”?
**A.** collision cross section [20]: 432.62 ± 1.4 Å²; collision cross section [21]: 500.32 ± 0.35 Å²

**Q.** Which collision cross section [10] does the source give for “TVSKVDDFLANEAK [_TVSK(Gluratylation)VDDFLANEAK_]” here?
**A.** 427.28 ± 0.47 Å²

**Q.** For “DSSPTTNSKLSALQR [_DSSPTTNSK(Crotonyl)LSALQR_]”, which collision cross section [1] is on record?
**A.** 436.18 ± 0.54 Å²

**Q.** What about the collision cross section [26] of the same sequence?
**A.** 499.72 ± 1.3 Å²

**Q.** Which collision cross section [7] does the source give for “SSGPGGQNVNKVNSK [_SSGPGGQNVNK(Malonyl)VNSK_]” here?
**A.** 402.61 ± 1.8 Å²

**Q.** And the collision cross section [8]?
**A.** 439.94 ± 2.2 Å²

**Q.** Which collision cross section [16] does the source give for DFDTALKHYDK [_DFDTALK(Acetyl (K))HYDK_] here?
**A.** 401.2 ± 2 Å²

**Q.** And the collision cross section [27]?
**A.** 463.37 ± 2.2 Å²

**Q.** For “TEVLSPNSKVESK [_TEVLSPNSK(Gluratylation)VESK_]”, which collision cross section [10] is on record?
**A.** 408.15 ± 0.5 Å²

**Q.** What about the collision cross section [11] of the same sequence?
**A.** 453.95 ± 1.7 Å²

**Q.** What does the source list for “GTITVSAQELKDNR [_GTITVSAQELK(Gluratylation)DNR_]”?
**A.** collision cross section [10]: 422.99 ± 0.48 Å²; collision cross section [11]: 483.37 ± 1.7 Å²

**Q.** With “PSVGSQSNQAGQGKR [_PSVGSQSNQAGQGK(Formyl)R_]” as the sequence, how does the collision cross section [12] read?
**A.** 402.96 ± 2 Å²

**Q.** And the collision cross section (charge state: 3, modification: Formyl)?
**A.** 470.1 ± 1.8 Å²

**Q.** With IQTKAGEATVK [_IQTK(Butyryl)AGEATVK_] as the sequence, how does the collision cross section [6] read?
**A.** 371.66 ± 1.8 Å²

**Q.** For IGNSYFKEEK [_IGNSYFK(Crotonyl)EEK_], which collision cross section [1] is on record?
**A.** 378.81 ± 0.89 Å²

**Q.** With “LQDVSGQLSSSKK [_LQDVSGQLSSSK(Trimethyl (K))K_]” as the sequence, how does the collision cross section [18] read?
**A.** 417.06 ± 1.1 Å²

**Q.** What about the collision cross section [19] of the same sequence?
**A.** 475.09 ± 1.5 Å²

**Q.** Which collision cross section [15] does the source give for VETFSGVYK [_VETFSGVY(Nitro (Y))K_] here?
**A.** 348.3 ± 0.55 Å²

**Q.** Which collision cross section [16] does the source give for LEKTIDDLEEK [_LEK(Acetyl (K))TIDDLEEK_] here?
**A.** 403.37 ± 1 Å²

**Q.** What does the source list for LEEVTGKLQVAR [_LEEVTGK(Biotin)LQVAR_]?
**A.** collision cross section [13]: 414.01 ± 0.23 Å²; collision cross section [14]: 494.02 ± 0.34 Å²

**Q.** Which collision cross section (charge state: 2, modification: Hydroxyproline) does the source give for GLQGPPGK [_GLQGPP(Hydroxyproline)GK_] here?
**A.** 294.56 ± 0.29 Å²

**Q.** For “HELQANCYEEVKDR [_HELQANCYEEVK(Acetyl (K))DR_]”, which collision cross section [16] is on record?
**A.** 446.57 Å²

**Q.** And the collision cross section [27]?
**A.** 495.42 ± 1.4 Å²

**Q.** For “VNVEAPDVNLEGLGGKLK [_VNVEAPDVNLEGLGGK(Crotonyl)LK_]”, which collision cross section [1] is on record?
**A.** 459.79 Å²

**Q.** Which collision cross section [4] does the source give for “APPIDRSILPTAPR [_APPIDR(Citrullination (R))SILPTAPR_]” here?
**A.** 410.86 ± 0.21 Å²

**Q.** What about the collision cross section [5] of the same sequence?
**A.** 480.52 ± 0.41 Å²

**Q.** For “TEVLSPNSKVESK [_TEVLSPNSK(Dimethyl (K))VESK_]”, which collision cross section [24] is on record?
**A.** 400.19 ± 1.6 Å²

**Q.** And the collision cross section [25]?
**A.** 477.45 ± 2.4 Å²

**Q.** With “LEQVEKELLR [_LEQVEK(Gluratylation)ELLR_]” as the sequence, how does the collision cross section [10] read?
**A.** 392.7 ± 0.12 Å²

**Q.** For “DESFLGKLGGTLAR [_DESFLGK(Trimethyl (K))LGGTLAR_]”, which collision cross section [19] is on record?
**A.** 477.03 ± 0.84 Å²

**Q.** Which collision cross section [17] does the source give for “SGKFTQQDIDEAK [_SGK(hydroxyisobutyryl)FTQQDIDEAK_]” here?
**A.** 423.01 ± 2.3 Å²
